Experimental data as given in PMC6221542.

biological target: H3K9me3 peptide NH2-…(me3)STGG-minipeg-K(5-fam)-NH2; test: fluorescence polarisation

Row | Substance | Kd
1 | CBX1 chromodomain V22E/K25S/D59F (domain or fragment) | 320 nM
2 | CBX1 chromodomain V22E/K25E/D59S (domain or fragment) | 210 nM
3 | CBX1 chromodomain, wild type (domain or fragment) | 2780 nM
